Experimental findings from patent US20240182864A1, “NOVEL CHEMICAL COMBINATIONS AND METHODS OF USE THEREOF, TOWARDS DIFFERENTIATION OF HUMAN PROGENITOR CELLS INTO FUNCTIONAL BETA CELLS” (Salk Institute for Biological Studies, priority 2021, published 2024) are described below.

The assay relates to H1 hESCs. As to the kind of experiment: Generation of pancreatic progenitors (stages 1-4) and PP 3D clusters, flow cytometry for PDX1/NKX6.1. In kind it is cell-based, human. Here is the method:
hESCs were maintained as feeder-free in mTeSR™1 (STEMCELL Technologies Inc.) according to the manufacturer's instructions. Before differentiation, adherent hESCs (at ˜90% confluence) were rinsed with PBS and then incubated with Accutase (Millipore) for 6-8 min at 37° C. Dissociated single cells were rinsed twice with DMEM/F12 and spun at 300 g for 3 min. The resulting cells were re-suspended in mTeSR™1 which was supplied with 10μM Y27632 (Sigma-Aldrich), and seeded on 1:30 diluted Matrigel (BD Biosciences)-coated dishes at a density of 55,000 cells/cm^2. The next day, the medium was exchanged for mTeSR™MI and maintained for one more day prior to differentiation initiation.
Stage 1: Definitive Endoderm (3 days). […] Each 800 ml MS12 medium was made with 744 ml MCDB131 medium (ThermoFisher), 3.2 ml 45% glucose (Sigma), 20 ml 20% fat-acid free BSA, and 16 ml 7.5% sodium bicarbonate (Gibco).
Stage 2: Posterior Foregut (3 days): after PBS rinse, cells are exposed to MS12 medium with KGF (Peprotech, 50 ng/ml), B27 (Gibco, 100×), Vitamin C (Vc, 0.25 mM, sigma) and dorsomorphin (0.75 μM). Cells were fed with fresh medium daily.
Stage 3: Pancreatic endoderm (3 days): After PBS rinse, cells were exposed to DMEM with B27 (100×), retinoic acid (RA, 2 μM, Sigma), Noggin (100 ng/ml, Peprotech), SANTI (0.25 μM, sigma), Vitamin C (Vc, 0.25 mM, sigma), Pen/Strep (100×, Gibco) and Glutamax (100×, Gibco). Cells were fed with fresh medium every other day.
Stage 4: Pancreatic progenitor (3-4 days): After PBS rinse, cells were exposed to DMEM with B27 (100×), EGF (100 ng/ml, Peprotech)+Nicotinamide (NICO, 10 mM; Sigma)+Noggin (100ng/ml)+Vc (0.25 mM). Cells were fed with fresh medium every other day.
V-bottom plate based aggregation: stage-4 cells were rinsed with PBS and then incubated with Accutase (Millipore) for 10-15 min at 37° C. Dissociated single cells were rinsed twice with DMEM/F12 and spun at 300 g for 3 min. The resulting cells were re-suspended in an aggregation medium supplied with 10μM Y27632 (Sigma-Aldrich). Cell solution with 0.1-0.4 (according to experimental design) million cells was added into each well of V-bottom 96-well plate, followed by a spun at 300 g for 3 min. The plate was put into 37° C. incubator for 8-12 hours to form clusters. Aggregation medium was made of V4b-Medium+heparin (Sigma, H3149, 10 μg/ml)+ZnSO4 (10 μM, sigma, Z0251)+LDN193189 (LDN, Tocris, 100 nM)+T3 (1 μM, Sigma, T6397)+RA ([…])+SANTI (0.25 μM: Tocris)+GABA (1 mM, Sigma)+human EGF (100 ng/ml, Peprotech)+NICO (10 mM)+VC (0.25 mM). V4b-Medium (800 ml) was made of 360 ml MCDB 131 medium+180 ml F12 medium+180 ml KO-DMEM medium+3.9 ml Glucose (45%, Sigma)+80ml 20% FF-BSA+16 ml Sodium Bicarbonate (7.5%)+4 ml ITX+8 ml Pen/Strep+8ml Glutamax: all items were purchased from Thermo Fisher Scientific unless otherwise indicated.
Single-cell suspension from cell cultures: Differentiated hESC cultures were rinsed with PBS and then incubated with 0.25% trypsin-EDTA (Life Technologies) at 37° C. for 1-3 minutes. The trypsin was neutralized with MEF medium. The dissociated cells were rinsed twice in PBS or DMEM/F12 medium for further analysis. For intracellular antibody staining, single cells were fixed in 200 μL of BD Cytofix/Cytoperm Buffer (BD Biosciences) at 4° C. for 20 minutes followed by three washes in BD Perm/Wash Buffer. Fixed cells were incubated in 150 μL of primary antibody buffer at 4° C. for 1 hour, followed by 30 minutes in a secondary antibody (if there is a secondary antibody) buffer after being rinsed twice in Perm/Wash Buffer. Stained cells were washed twice in Perm/Wash Buffer prior to analyses. The acquired data were analyzed by FlowJo.
Efficient generation of PP 3D-clusters is responsible for generating functional βcells. An hPSC reporter line with NKX6.1-NLS-GFP has been generated by homologous recombination (FIG. 1A and data not shown), which aids in the study of functional β cell production protocols. […]

The mark [1] stands for this setting: Constant high-dose of Activin-A (115-115-115 ng/ml day 1-day 2-day 3).
[2] abbreviates: Constant low-dose of Activin-A (100-100-100 ng/ml day 1-day 2-day 3).
The mark [3] stands for this setting: Decreasing gradient dose of Activin-A (115-110-100 ng/ml day 1-day 2-day 3).

B1: Activin-A: a TGFβ family member used at stage 1 (protein, UniProt P08476 311-426, looked up)
Inhibin beta A chain: GLECDGKVNICCKKQFFVSFKDIGWNDWIIAPSGYHANYCEGECPSHIAGTSGSSLSFHSTVINHYRMRGHSPFANLKSCCVPTKLRPMSMLYYDDGQNIIKKDIQNMIVEECGCS
modifications: Inhibin beta A chain
For the molecule B1, under setting [1], the NKX6.1-positve cells is recorded as ~20%-50%, the PDX1-positve cells is ~90% and the PDX1-postive/NKX6.1-positve cells is reported as ~20%-50%. Further, under setting [2], the NKX6.1-positve cells is ~15%-50%, the PDX1-positve cells is listed as ~50%-80% and the PDX1-postive/NKX6.1-positve cells is reported as ~15%-50%. Moreover, under setting [3], the NKX6.1-positve cells was ~80%, the PDX1-positve cells is given as ~93% and the PDX1-postive/NKX6.1-positve cells is given as ~80%. Also, where the note is “constant low-dose Activin-A”, the “cell density and cell heterogeneity at stage 4” value is “appropriate cell density but resulting in high cell heterogeneity at stage 4”. For the same molecule, the “cell proliferation and cell density” value (high-dose Activin-A) is “severely reduced cell proliferation and resulted in suboptimal cell density”.
